Experimental data reported in patent US10919943B2, “Mutant proteins enabling agrochemical control of plant gene expression” (The Regents of the University of California, priority 2016, dated 2021).
Substitutions are numbered along the chain they refer to. Numbers in names are those of the source.

B1: F61E: PYR1 mutant (protein, UniProt O49686 1-191, looked up, variant F61E)
Abscisic acid receptor PYR1: MPSELTPEERSELKNSIAEFHTYQLDPGSCSSLHAQRIHAPPELVWSIVRRFDKPQTYKHEIKSCSVEQNFEMRVGCTRDVIVISGLPANTSTERLDILDDERRVTGFSIIGGEHRLTNYKSVTTVHRFEKENRIWTVVLESYVVDMPEGNSEDDTRMFADTVVKLNLQKLATVAEAMARNSGDGSGSQVT
B2: S85G: PYR1 mutant (protein, UniProt O49686 1-191, looked up, variant S85G)
Abscisic acid receptor PYR1: B1 Abscisic acid receptor PYR1 with E61F, S85G
B3: S85N: PYR1 mutant (protein, UniProt O49686 1-191, looked up, variant S85N)
Abscisic acid receptor PYR1: B1 Abscisic acid receptor PYR1 with E61F, S85N
B4: I62R: PYR1 mutant (protein, UniProt O49686 1-191, looked up, variant I62R)
Abscisic acid receptor PYR1: B1 Abscisic acid receptor PYR1 with E61F, I62R
B5: S85K: PYR1 mutant (protein, UniProt O49686 1-191, looked up, variant S85K)
Abscisic acid receptor PYR1: B1 Abscisic acid receptor PYR1 with E61F, S85K
B6: S85Y: PYR1 mutant (protein, UniProt O49686 1-191, looked up, variant S85Y)
Abscisic acid receptor PYR1: B1 Abscisic acid receptor PYR1 with E61F, S85Y
B7: I62G: PYR1 mutant (protein, UniProt O49686 1-191, looked up, variant I62G)
Abscisic acid receptor PYR1: B1 Abscisic acid receptor PYR1 with E61F, I62G
B8: S85H: PYR1 mutant (protein, UniProt O49686 1-191, looked up, variant S85H)
Abscisic acid receptor PYR1: B1 Abscisic acid receptor PYR1 with E61F, S85H
B9: S85E: PYR1 mutant (protein, UniProt O49686 1-191, looked up, variant S85E)
Abscisic acid receptor PYR1: B1 Abscisic acid receptor PYR1 with E61F, S85E
B10: S85P: PYR1 mutant (protein, listed as Arabidopsis thaliana)
chain: B1 Abscisic acid receptor PYR1 with E61F, S85P
B11: F61I: PYR1 mutant (protein, UniProt O49686 1-191, looked up, variant F61I)
Abscisic acid receptor PYR1: B1 Abscisic acid receptor PYR1 with E61I
B12: F61K: PYR1 mutant (protein, listed as Arabidopsis thaliana)
chain: B1 Abscisic acid receptor PYR1 with E61K
B13: S85A: PYR1 mutant (protein, UniProt O49686 1-191, looked up, variant S85A)
Abscisic acid receptor PYR1: B1 Abscisic acid receptor PYR1 with E61F, S85A
B14: S85F: PYR1 mutant (protein, UniProt O49686 1-191, looked up, variant S85F)
Abscisic acid receptor PYR1: B1 Abscisic acid receptor PYR1 with E61F, S85F
B15: S85R: PYR1 mutant (protein, UniProt O49686 1-191, looked up, variant S85R)
Abscisic acid receptor PYR1: B1 Abscisic acid receptor PYR1 with E61F, S85R
B16: I62D: PYR1 mutant (protein, UniProt O49686 1-191, looked up, variant I62D)
Abscisic acid receptor PYR1: B1 Abscisic acid receptor PYR1 with E61F, I62D
B17: S85V: PYR1 mutant (protein, UniProt O49686 1-191, looked up, variant S85V)
Abscisic acid receptor PYR1: B1 Abscisic acid receptor PYR1 with E61F, S85V
B18: F61G: PYR1 mutant (protein, UniProt O49686 1-191, looked up, variant F61G)
Abscisic acid receptor PYR1: B1 Abscisic acid receptor PYR1 with E61G
B19: I62Y: PYR1 mutant (protein, UniProt O49686 1-191, looked up, variant I62Y)
Abscisic acid receptor PYR1: B1 Abscisic acid receptor PYR1 with E61F, I62Y
B20: I62E: PYR1 mutant (protein, UniProt O49686 1-191, looked up, variant I62E)
Abscisic acid receptor PYR1: B1 Abscisic acid receptor PYR1 with E61F, I62E
B21: I84L: PYR1 mutant (protein, UniProt O49686 1-191, looked up, variant I84L)
Abscisic acid receptor PYR1: B1 Abscisic acid receptor PYR1 with E61F, I84L
B22: F61H: PYR1 mutant (protein, UniProt O49686 1-191, looked up, variant F61H)
Abscisic acid receptor PYR1: B1 Abscisic acid receptor PYR1 with E61H
B23: S85W: PYR1 mutant (protein, UniProt O49686 1-191, looked up, variant S85W)
Abscisic acid receptor PYR1: B1 Abscisic acid receptor PYR1 with E61F, S85W
B24: I62W: PYR1 mutant (protein, UniProt O49686 1-191, looked up, variant I62W)
Abscisic acid receptor PYR1: B1 Abscisic acid receptor PYR1 with E61F, I62W
B25: S85C: PYR1 mutant (protein, UniProt O49686 1-191, looked up, variant S85C)
Abscisic acid receptor PYR1: B1 Abscisic acid receptor PYR1 with E61F, S85C
B26: K63P: PYR1 mutant (protein, UniProt O49686 1-191, looked up, variant K63P)
Abscisic acid receptor PYR1: B1 Abscisic acid receptor PYR1 with E61F, K63P
B27: S85D: PYR1 mutant (protein, UniProt O49686 1-191, looked up, variant S85D)
Abscisic acid receptor PYR1: B1 Abscisic acid receptor PYR1 with E61F, S85D
B28: S85L: PYR1 mutant (protein, UniProt O49686 1-191, looked up, variant S85L)
Abscisic acid receptor PYR1: B1 Abscisic acid receptor PYR1 with E61F, S85L
B29: S85Q: PYR1 mutant (protein, UniProt O49686 1-191, looked up, variant S85Q)
Abscisic acid receptor PYR1: B1 Abscisic acid receptor PYR1 with E61F, S85Q
B30: S85M: PYR1 mutant (protein, UniProt O49686 1-191, looked up, variant S85M)
Abscisic acid receptor PYR1: B1 Abscisic acid receptor PYR1 with E61F, S85M
B31: I62K: PYR1 mutant (protein, UniProt O49686 1-191, looked up, variant I62K)
Abscisic acid receptor PYR1: B1 Abscisic acid receptor PYR1 with E61F, I62K
B32: S85I: PYR1 mutant (protein, UniProt O49686 1-191, looked up, variant S85I)
Abscisic acid receptor PYR1: B1 Abscisic acid receptor PYR1 with E61F, S85I

What follows are molecules tested on HAB1 (assay: Yeast two hybrid of pBD-PYR1 site saturation mutants with pACT-HAB1 on 10 μM ABA, β-galactosidase staining). Conditions: S. cerevisiae Y190, 10 μM ABA; dead = lack of visible staining in comparison to wild type control.
Assay type: cell-based, Arabidopsis
Parameters: key: x: Mutations in PYR1 that disrupt ABA-induced binding to PYR1 to HAB1
Summary of the method: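 S. cerevisiae Y190 co-expressing GAL4-DNA-binding-domain–PYR1 mutants and GAL4-activation-domain–HAB1 were spotted on SD (-Leu, -Trp) agar with 10 μM (+)-ABA for 2 days at 30° C. Colonies were chloroform-lysed and stained for β-galactosidase. Mutants lacking visible staining relative to wild type were scored as non-binding.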

Row | Mutations in PYR1 that disrupt ABA-induced binding to PYR1 to HAB1 | Molecule
1 | x | B1
2 | x | B2
3 | x | B3
4 | x | B4
5 | x | B5
6 | x | B6
7 | x | B7
8 | x | B8
9 | x | B9
10 | x | B10
11 | x | B11
12 | x | B12
13 | x | B13
14 | x | B14
15 | x | B15
16 | x | B16

Row | Mutations in PYR1 that disrupt ABA-induced binding to PYR1 to HAB1 | Molecule
17 | x | B17
18 | x | B18
19 | x | B19
20 | x | B20
21 | x | B21
22 | x | B22
23 | x | B23
24 | x | B24
25 | x | B25
26 | x | B26
27 | x | B27
28 | x | B28
29 | x | B29
30 | x | B30
31 | x | B31
32 | x | B32
